Measured values reported in article PMC8657904.

Legend:
[1] = biological target: CmbHLH2 from chrysanthemum 'Jimba', GAL4 DNA-binding domain fusion (Chrysanthemum x morifolium 'Jimba')
[2] = biological target: CmbHLH2.1 (alternative splicing variant of CmbHLH2) from chrysanthemum 'Jimba', GAL4 DNA-binding domain fusion (Chrysanthemum x morifolium 'Jimba')
CmbHLH2.1 (alternative splicing variant of CmbHLH2) from chrysanthemum 'Jimba', GAL4 DNA-binding domain fusion (Chrysanthemum x morifolium 'Jimba'), sequence (main, as listed by the source mutant): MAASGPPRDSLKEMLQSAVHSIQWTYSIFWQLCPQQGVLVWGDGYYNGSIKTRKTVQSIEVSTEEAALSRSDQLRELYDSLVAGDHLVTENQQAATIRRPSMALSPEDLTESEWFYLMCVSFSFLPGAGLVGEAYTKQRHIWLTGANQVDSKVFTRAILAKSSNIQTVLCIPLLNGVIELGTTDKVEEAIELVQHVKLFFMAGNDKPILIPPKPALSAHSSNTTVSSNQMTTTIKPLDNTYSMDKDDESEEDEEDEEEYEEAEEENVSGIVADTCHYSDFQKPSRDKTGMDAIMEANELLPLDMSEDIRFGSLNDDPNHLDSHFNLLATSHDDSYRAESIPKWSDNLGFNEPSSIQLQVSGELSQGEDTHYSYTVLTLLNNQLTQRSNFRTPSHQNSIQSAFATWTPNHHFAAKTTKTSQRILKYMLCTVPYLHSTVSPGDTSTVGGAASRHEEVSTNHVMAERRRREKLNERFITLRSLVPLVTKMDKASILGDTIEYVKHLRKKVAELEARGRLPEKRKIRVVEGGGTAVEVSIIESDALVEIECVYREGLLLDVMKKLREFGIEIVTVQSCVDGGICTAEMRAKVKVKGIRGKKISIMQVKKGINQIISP

CmbHLH2 from chrysanthemum 'Jimba', GAL4 DNA-binding domain fusion (Chrysanthemum x morifolium 'Jimba'), sequence (main, as listed by the source): as the sequence (main, as listed by the source mutant) above

Question: What does the source list for “CmMYB6 (transcript20734) from chrysanthemum 'Jimba', GAL4 activation domain fusion (natural protein)”?
Answer: dual-luciferase assay in Nicotiana benthamiana leaves: fold-induced activation of the CmDFR promoter by CmMYB6 together with CmbHLH2, compared to empty vector [1]: > 40 times; dual-luciferase assay in Nicotiana benthamiana leaves: fold-induced activation of the CmDFR promoter by CmMYB6 together with CmbHLH2.1, compared to empty vector [2]: > 10 times
